Experimental data: doi:10.1101/2023.07.13.548902v1

Substrate: [H][C@@]1(O[C@H]2[C@H](O)[C@@H](O)[C@H](Oc3ccc([N+](=O)[O-])cc3)O[C@@H]2CO)O[C@H](CO)[C@H](O)[C@H](O)[C@H]1O
Experiment: p-nitrophenol release, Lineweaver-Burk
Assay type: biochemical, Aspergillus fumigatus
Details: 50 °C, 30 min, 25 mM citrate pH 5.0

B1: AfCel7A (Aspergillus fumigatus Af293) (protein)
chain: QQVGTSQAEVHPSMTWQSCTAGGSCTTNNGKVVIDANWRWVHKVGDYTNCYTGNTWDTTICPDDATCASNCALEGANYESTYGVTASGNSLRLNFVTTSQQKNIGSRLYMMKDDSTYEMFKLLNQEFTFDVDVSNLPCGLNGALYFVAMDADGGMSKYPTNKAGAKYGTGYCDSQCPRDLKFINGQANVEGWQPSSNDANAGTGNHGSCCAEMDIWEANSISTAFTPHPCDTPGQVMCTGDACGGTYSSDRYGGTCDPDGCDFNSFRQGNKTFYGPGMTVDTKSKFTVVTQFITDDGTSSGTLKEIKRFYVQNGKVIPNSESTWTGVSGNSITTEYCTAQKSLFQDQNVFEKHGGLEGMGAALAQGMVLVMSLWDDHSANMLWLDSNYPTTASSTTPGVARGTCDISSGVPADVEANHPDAYVVYSNIKVGPIGSTFNSGGSNPGGGTTTTTTTQPTTTTTTAGNPGGTGVAQHYGQCGGIGWTGPTTCASPYTCQKLNDYYSQCL
In the case of B1, the Km is reported as 128 ± 1 µM and the kcat is reported as 0.08055 ± 0.00033 s⁻¹.
